In the supplement of paper PMC7877785:
± gives the uncertainty stated by the source.

Experiment: self-splicing fitness, log relative to wild type (ln ratio); higher = more splicing; Tetrahymena group I intron in knt gene, E. coli kanamycin selection, DiMSum; sequences stand for … in CUCUCU…GGAGGGAAAAGUUAUCAGGCAUGCACCUGGUAGCUAGUCUUUAAACCAAUAGAUUGCAUCGGUUUAAAAGGCAAGACCGUCAAAUUGCGGGAAAGGGGUCAACAGCCGUUCAGUACCAAGUCUCAGGGGAAACUUUGAGAUGGCCUUGCAAAGGGUAUGGUAAUAAGCUGACGGACAUGGUCCUAACCACGCAGCCAAGUCCUAAGUCAACAGAUCUUCUGUUGAUAUGGAUGCAGUUCACAGACUAAAUGUCGGUCGGGGAAGAUGUAUUCUUCUCAUAAGAUAUAGUCGGACCUCUCCUUAAUGGGAGCUAGCGGAUGAAGUGAUGCAACACUGGAGCCGCUGGGAACUAAUUUGUAUGCGAAAGUAUAUUGAUUAGUUUUGGAGUACUCGUGGUCG
Method in brief: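 DiMSum derived fitness as the error-weighted combination of fold changes across replicates, kanamycin versus no kanamycin, normalised to wild type. E. coli BL21(DE3) held the library, which randomised all eight P1ex-region intron nucleotides within the knt kanamycin-resistance gene on pET-22b(+). Six replicate transformations grew overnight at 37°C or 30°C on LB agar with or without 25 μg/mL kanamycin, also containing 100 μg/mL carbenicillin, 50 μM IPTG and 0.2% rhamnose, and pooled colonies were amplicon-sequenced on an Illumina HiSeq 2500.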

Sequence	self-splicing fitness (ln) (30 °C)	self-splicing fitness (ln) (37 °C)
GGGAAGCAAUAUUACGUUUU	-2.68 ± 0.23	-1.62 ± 0.25
GGGCAGCAAUAUUACGAAGG	-3.32 ± 0.27	-2.45 ± 0.35
GGGCAGCAAUAUUACGACGU	-0.265 ± 0.1	0.553 ± 0.12
GGGCAGCAAUAUUACGACUG	-2.84 ± 0.2	-0.716 ± 0.27
GGGCAGCAAUAUUACGAGAC	-3.12 ± 0.26	-1.74 ± 0.19
GGGCAGCAAUAUUACGAGGG	-3.93 ± 0.34	-2.39 ± 0.24
GGGCAGCAAUAUUACGAUAC	-1.1 ± 0.11	0.201 ± 0.12
GGGCAGCAAUAUUACGAUUC	-0.524 ± 0.17	0.155 ± 0.15
GGGCAGCAAUAUUACGCCGG	-1.51 ± 0.11	0.118 ± 0.14
GGGCAGCAAUAUUACGCCGU	-2.84 ± 0.21	-1.01 ± 0.15
GGGCAGCAAUAUUACGCGCU	-2.33 ± 0.19	-1.44 ± 0.35
GGGCAGCAAUAUUACGGAUG	-3.41 ± 0.26	-2.81 ± 0.34
GGGCAGCAAUAUUACGGGGU	–	-2.84 ± 0.34
GGGCAGCAAUAUUACGGGUC	-2.9 ± 0.25	-2.02 ± 0.23
GGGCAGCAAUAUUACGUCAA	0.3 ± 0.08	0.285 ± 0.088
GGGCAGCAAUAUUACGUCUC	-2.15 ± 0.23	-1.41 ± 0.15
GGGCAGCAAUAUUACGUCUG	-1.11 ± 0.22	-1.04 ± 0.16
GGGCAGCAAUAUUACGUGAA	-0.864 ± 0.079	-0.507 ± 0.083
GGGCAGCAAUAUUACGUGUC	-3.82 ± 0.17	-2.53 ± 0.2
GGGGAGCAAUAUUACGAUGU	-1.64 ± 0.25	-1.55 ± 0.35
GGGGAGCAAUAUUACGCAAU	–	-1.66 ± 0.48
GGGGAGCAAUAUUACGCCAC	-3.28 ± 0.27	-3.39 ± 0.39
GGGGAGCAAUAUUACGCGCA	-2.35 ± 0.22	-1.32 ± 0.25
GGGGAGCAAUAUUACGGCUA	-0.686 ± 0.18	-0.291 ± 0.17
GGGGAGCAAUAUUACGGGAA	–	-1.38 ± 0.49
GGGGAGCAAUAUUACGGGUA	-2.64 ± 0.26	-2.25 ± 0.34
GGGGAGCAAUAUUACGGUAA	-2.05 ± 0.28	-2.82 ± 0.3

Sequence	self-splicing fitness (ln) (30 °C)	self-splicing fitness (ln) (37 °C)
GGGGAGCAAUAUUACGGUCA	–	-0.676 ± 0.18
GGGGAGCAAUAUUACGUAAC	-2.06 ± 0.46	-0.204 ± 0.39
GGGGAGCAAUAUUACGUAGA	-2.43 ± 0.31	-1.7 ± 0.4
GGGGAGCAAUAUUACGUCAU	–	-2.07 ± 0.39
GGGGAGCAAUAUUACGUUAG	-3.73 ± 0.43	-0.485 ± 0.33
GGGUAGCAAUAUUACGAGGC	-3.89 ± 0.47	-2.19 ± 0.25
GGGUAGCAAUAUUACGCUGA	-2.05 ± 0.15	0.00831 ± 0.17
GGGUAGCAAUAUUACGGAAU	-0.368 ± 0.12	-0.661 ± 0.19
GGGUAGCAAUAUUACGGCCG	-0.902 ± 0.086	-0.295 ± 0.15
GGGUAGCAAUAUUACGGCCU	-3.57 ± 0.38	-2.14 ± 0.46
GGGUAGCAAUAUUACGGGAU	-3.17 ± 0.22	-2.04 ± 0.23
GGGUAGCAAUAUUACGGUUC	-0.821 ± 0.095	0.258 ± 0.13
GGGUAGCAAUAUUACGUCAG	–	-0.355 ± 0.32
GGGUAGCAAUAUUACGUCGC	-1.04 ± 0.23	0.272 ± 0.21
GGGUAGCAAUAUUACGUCUA	-0.297 ± 0.15	0.226 ± 0.16
GGGUAGCAAUAUUACGUGGA	-3.45 ± 0.2	-2.02 ± 0.097
GGGUAGCAAUAUUACGUUCA	0.0201 ± 0.096	-0.0805 ± 0.12
GGUAAGCAAUAUUACGACGG	-3.74 ± 0.33	-2.84 ± 0.34
GGUAAGCAAUAUUACGAGGG	-2.38 ± 0.14	-2.98 ± 0.24
GGUAAGCAAUAUUACGAUAG	-3.14 ± 0.2	-2.14 ± 0.24
GGUAAGCAAUAUUACGCAAG	-3.39 ± 0.26	-2.03 ± 0.22
GGUAAGCAAUAUUACGCACU	–	-2.23 ± 0.2
GGUAAGCAAUAUUACGCCCC	-3.4 ± 0.45	–
GGUAAGCAAUAUUACGCCCU	-1.86 ± 0.28	-1.35 ± 0.28
GGUAAGCAAUAUUACGCCGC	-3.46 ± 0.43	-1.41 ± 0.27
GGUAAGCAAUAUUACGCUAA	-2.29 ± 0.18	0.0407 ± 0.15
GGUAAGCAAUAUUACGCUAU	-2.53 ± 0.17	-2.05 ± 0.27

Sequence	self-splicing fitness (ln) (30 °C)	self-splicing fitness (ln) (37 °C)
GGUAAGCAAUAUUACGGAGA	-3.47 ± 0.23	-2.8 ± 0.22
GGUAAGCAAUAUUACGGAUU	-0.823 ± 0.094	-0.646 ± 0.11
GGUAAGCAAUAUUACGGGAU	-2.82 ± 0.27	-0.913 ± 0.21
GGUAAGCAAUAUUACGGGCG	-0.129 ± 0.097	-0.279 ± 0.13
GGUAAGCAAUAUUACGUACU	-1.82 ± 0.32	–
GGUAAGCAAUAUUACGUCCU	-1.17 ± 0.2	-0.999 ± 0.23
GGUCAGCAAUAUUACGAAAC	-0.257 ± 0.22	-0.396 ± 0.22
GGUCAGCAAUAUUACGAUUG	-0.673 ± 0.073	0.0247 ± 0.097
GGUCAGCAAUAUUACGCGAA	-0.889 ± 0.069	0.00884 ± 0.088
GGUCAGCAAUAUUACGCGUC	-1.46 ± 0.17	0.149 ± 0.19
GGUCAGCAAUAUUACGCGUG	-0.989 ± 0.077	-0.272 ± 0.083
GGUCAGCAAUAUUACGGAAC	-1.04 ± 0.1	-0.383 ± 0.14
GGUCAGCAAUAUUACGGACU	-1.49 ± 0.44	–
GGUCAGCAAUAUUACGGAUU	-0.77 ± 0.079	-0.499 ± 0.1
GGUCAGCAAUAUUACGGCCG	-1.83 ± 0.33	-1.64 ± 0.33
GGUCAGCAAUAUUACGGCGA	0.307 ± 0.14	0.838 ± 0.14
GGUCAGCAAUAUUACGGGUU	-1.25 ± 0.083	-0.194 ± 0.089
GGUCAGCAAUAUUACGGUCA	-0.669 ± 0.13	0.518 ± 0.13
GGUCAGCAAUAUUACGGUGU	-1.44 ± 0.15	0.00529 ± 0.14
GGUCAGCAAUAUUACGUCAA	-0.511 ± 0.071	0.0808 ± 0.082
GGUCAGCAAUAUUACGUGAG	0.0154 ± 0.061	0.241 ± 0.085
GGUCAGCAAUAUUACGUGGG	-2.15 ± 0.089	-2.38 ± 0.15
GGUCAGCAAUAUUACGUUCU	-0.13 ± 0.1	0.22 ± 0.11
GGUGAGCAAUAUUACGACAC	-0.5 ± 0.18	0.114 ± 0.22
GGUGAGCAAUAUUACGAGAG	-4.03 ± 0.27	-2.38 ± 0.18
